Source: doi:10.1101/2022.03.11.483938v2

Key:
purified protein [1] = substrate: Nc1ncnc2c1ncn2[C@@H]1O[C@H](COP(=O)(O)O)[C@@H](O)[C@H]1O; test: purified protein; details: hydrolysis rate gradually decreased under the selected conditions
purified protein [2] = substrate: Nc1ncnc2c1ncn2[C@H]1C[C@H](O)[C@@H](COP(=O)(O)O)O1; test: purified protein; details: constant hydrolysis rate

B1: SiE5NT (ecto-5'-nucleotidase) (Serendipita indica DSM 11827) (protein)
chain: KVDSLVSERALQKRFVDANGNYNVTIVHTNDVHAHLDQWRAGRGTDCTPGSECISGYARIKQKVSELRQSIQDPIFLNAGDEFQGTLFFTYYGGEKISYAINEVGYDVFTLGNHEFDRGQGELAAFLKNLTFPVVCANFKTNDTAMNALNIQPYTIIEKHQLGIIGVITPDTKGTSSGAGPGTEFSDPVQAVQKAVDELQAKNITRIIALTHIGYDKDIELAQKTKGVDLIVGGHSHTLLGNFTNAMGSYPTTAKNLDGEEVFIVTSYRWGEILGKMNIAFDASGKIVSYEGEPLRLTNTTQQDPKLQAEVNEWRQPFDAMAQVVVGTSSVVLDQSICQFSECTLGNVITDAMYEYRKNAGGNVDFALINSGGIRASISEGTVTQGDILTSFPFMNGVVDLTWTGKQLLDIFEGVVSKYSTLSHHATTSFIQVSKQVKFSWNPNNVNQTRLITLEIGGQQVDVNKNYTMVTLDFLASNGDYLWGTRTDFAALDTLDVVLASYFKAHSPVGASIEGRITNSTSTTQQLPGKGSSGGSGGASALIVSGLSAGMMLLAGMMLV
B1 gave a Km (purified protein [1]) of 15.9 µM, a kcat (purified protein [1]) of 1.1 s⁻¹ and a Km (purified protein [2]) of 361.6 µM. The kcat (purified protein [2]) was 11.9 s⁻¹.
